# US20220251233A1 (VERSEAU THERAPEUTICS, published 2022)
# T1: Human CD53-CHO (full-length human CD53 over-expressed on CHO-K1 cells) (human, UniProt P19397 1-219)
# T1 construct: Tetraspanin cell-surface antigen
# T1 sequence: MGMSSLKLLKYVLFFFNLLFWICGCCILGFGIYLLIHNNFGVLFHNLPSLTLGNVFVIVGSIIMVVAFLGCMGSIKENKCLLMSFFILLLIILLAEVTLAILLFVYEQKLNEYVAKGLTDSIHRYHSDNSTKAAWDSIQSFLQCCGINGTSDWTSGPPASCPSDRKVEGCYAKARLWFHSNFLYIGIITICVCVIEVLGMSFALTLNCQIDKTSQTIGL
# Target: T1, Human CD53-CHO (full-length human CD53 …)
# Assay: flow cytometry on CD53-CHO cells, anti-mouse IgG AF647 gMFI, 4-parameter fit
# Protocol: Binding of anti-human CD53 antibodies was determined by flow cytometry for their ability to bind human CD53-CHO cells compared to parental CHO-K1 cells. All assay steps were performed in FACS buffer (phosphate buffered saline pH 7.4 supplemented with 2% fetal bovine serum). Twenty thousand cells were seeded in 384-well plates and washed twice with ice cold buffer. Cells were incubated with purified antibodies titrated 3-fold from 200 nM to 0.09 nM at 4° C. for 1 hour with gentle agitation, then washed twice with FACS buffer and incubated with anti-mouse IgG Alexa Fluor® 647 and incubated at 4° C. for 40 minutes. Cells were washed twice and resuspended in FACS buffer. Analysis was preformed on the IntelliCyt® iQue Screener and gMFI values for Alexa Fluor® 647 were generated. EC50 values were determined in GraphPad Prism8. Concentration was transformed from nM to Log 10 nM and curves were fit with a nonlinear regression of log(agonist) vs. response−Variable slope (four parameters) or Y=Bottom+(Top−Bottom)/(1+10\hat{ }((LogEC50−X)*HillSlope)). EC50 values for all anti-human CD53 antibodies can be found in Table 6, and representative binding curves can be found in FIG. 7. Binding to CD53-CHO is represented by closed symbols and binding to parental CHO-K1 cells is represented by open symbols.
row,EC50 [nM],Binder
1,~7,"3G02 (antibody, V domains shown, Murine anti-human CD53 mAb purified from subcloned hybridoma; detected with anti-mouse IgG) VH: EVQLQQSVAELVRPGASVKLSCTASGFNIKNTYMHWVKQRPEQGLEWIGRIDPAIGYTEYAPKFQGKATITADTSSNTAWLQLSSLTSEDTAIYYCAGGGPYYAMDYWGRGTSVTVSS VL: DIVMTQAAPSIPVTPGESVSISCRSSKSLLHSNGDTYLYWFLQRPGQSPQVLIYRMSNLASGVPARFSGSGSGTAFTLRISRVEAEDVGVYYCMQHLEYPFTFGAGTKLELK"
2,~7,"4C22 (antibody, V domains shown, Murine anti-human CD53 mAb purified from subcloned hybridoma; detected with anti-mouse IgG) VH: EVQLQQSGAELVRPGASVKLSCTASGFNIKDDFMNWVKQRPEQGLEWIGRIDPANGHTKYAPKFQDKATITADTSSNTAFLHLSSLTSEDTAVYFCARWIPPYWGQGTLVTVSA VL: DIVMTQAAPSVPVTPGESASISCRSSKSLLHSNGDTYLYWFLQRPGQSPQLLIYRMSNLASGVPDRFSGSGSGTAFTLRISRVEAEDVGVYYCMQLLEYPYTFGGGTKLEIK"
3,1.6,"4J16 (antibody, V domains shown, Murine anti-human CD53 mAb purified from subcloned hybridoma; detected with anti-mouse IgG) VH: EVQLQQSGAELVRPGASVRLSCTASGFNIKDDFLHWVNQRPEQGLEWIGRIDPANGNTKYAPKFRDRATITADTSSNTAYLQLSSLTSEDTAVYYCVRVYGDYWGQGTTLTVSS VL: DIVMTQAAFSNPVTLGTSASISCRSSKSLLHSNGITYLYWYLQKPGQSPQLLIYQMSNLASGVPDRFSSSGSGTDFTLRISRVEAEDVGVYYCAQNLELPLTFGAGTKLELK"
4,3.8,"4G15 (antibody, V domains shown, Murine anti-human CD53 mAb purified from subcloned hybridoma; detected with anti-mouse IgG) VH: EVQLQQSGAELVRPGASVKLSCTTSGFNIKDDFMHWVKQRPEQGLEWIGWIDPENGNTQYASKFQGKATITADTSSNTAYLQLSSLTSEDTAVYYCTSYYEETMDYWGQGTSVTVSS VL: DIVMTQAAFSNPVTLGTSASISCSSSKSLLHSNGITYLYWYLQRPGQSPQLLIYRMSNLASGVPDRFSGSGSGTDFTLRISRVEAEDVGVYYCAQMLERPRTFGGGTKLEIK"
5,~1,"4K13 (antibody, V domains shown, Murine anti-human CD53 mAb purified from subcloned hybridoma; detected with anti-mouse IgG) VH: EVQLQQSVAELVRPGASVKLSCTASGLNIKNTYMNWVKQRPEQGLEWIGRIDPANGYTKYAPKFQGKTTITAATSSNTAFLQLSSLTSGDTAIYYCTTAVVATGDYWGQGTTLTVSS VL: DIVMTQAAFSNPVTLGTSASISCRSSKSLLHSDGITYLYWFLQRPGQSPQLLIYRMSNLASGVPDRFSGSGSGTDFTLRISRVEAEDVGVYYCAQMLEFPFTFGTGTKLEIK"
6,4.3,"4L19 (antibody, V domains shown, Murine anti-human CD53 mAb purified from subcloned hybridoma; detected with anti-mouse IgG) VH: QVQLQQSGAELMKPGASVKLSCKATGYTFTGYWIEWVKQRPGHGLEWIGEISSGGYNTNYNKKFKGKATFTVDTSSNTAYMQLSSLTTEDSAIYYCTRDSNDYYFDYWGQGTTLTVSS VL: DVVMTQTPLTLSVTIGQPASISCKSSQSLLHRNGKTHLNWLLQRPGQSPKLLIYLVSKLESGVPDRFSGSGSGTDFTLRISRVEAEDLGVYYCLQVTHFPYTFGSGTKLEIK"
